Consider six molecules from patent US20260234242A1 (HAINAN SIMCERE ZAIMING PHARMACEUTICAL, published 2026).

For assay [1], the target named is T1, human CDH6 with EC5 removed, on HEK293T cells (HEK293T-hCDH6-EC5 deletion) (human, UniProt P55285 54-790).
T1 construct: Signal peptide not removed here
T1 sequence: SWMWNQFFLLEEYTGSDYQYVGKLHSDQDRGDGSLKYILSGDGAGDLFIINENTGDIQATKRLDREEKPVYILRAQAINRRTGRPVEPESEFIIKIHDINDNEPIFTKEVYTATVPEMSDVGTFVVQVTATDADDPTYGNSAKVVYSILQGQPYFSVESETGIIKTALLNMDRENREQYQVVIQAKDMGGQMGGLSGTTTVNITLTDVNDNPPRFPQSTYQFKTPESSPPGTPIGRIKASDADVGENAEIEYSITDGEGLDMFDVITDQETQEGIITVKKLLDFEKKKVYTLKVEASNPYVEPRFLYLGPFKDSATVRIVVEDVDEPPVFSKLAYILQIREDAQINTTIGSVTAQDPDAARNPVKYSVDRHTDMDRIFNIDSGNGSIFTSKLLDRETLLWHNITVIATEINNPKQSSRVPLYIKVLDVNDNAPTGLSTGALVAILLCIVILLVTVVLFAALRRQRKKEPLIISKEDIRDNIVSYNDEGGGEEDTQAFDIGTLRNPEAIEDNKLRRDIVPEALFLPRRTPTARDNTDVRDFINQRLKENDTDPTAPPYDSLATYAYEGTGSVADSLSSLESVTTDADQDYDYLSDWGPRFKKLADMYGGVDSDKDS
Kind of assay: FACS, HEK293T-hCDH6-EC5 deletion cells. The source says:
To confirm the binding epitope of the CDH6 antibody, the sequences after removal of these 5 regions were constructed into pcDNA3.1 vectors (purchased from Youbio, Cat. No. VT1001), and transfected into HEK293T cells (purchased from Cell Bank of Chinese Academy of Sciences, Cat. No. SCSP-502) to obtain 5 CDH6 truncated cell lines: HEK293T-hCDH6-EC1 deletion, HEK293T-hCDH6-EC2 deletion, HEK293T-hCDH6-EC3 deletion, HEK293T-hCDH6-EC4 deletion, and HEK293T-hCDH6-EC5 deletion.
The binding activity of the CDH6 chimeric antibodies to these 5 cell lines was assayed by FACS.
In general terms: A flow cytometer gives signals particle by particle.

Assay [2] addresses T2, his-tagged human CDH6 extracellular region protein (hCDH6 ECD-his) (human, UniProt P55285 19-615).
T2 construct: also called Human CDH6-his; hCDH6-his; not shown: his tag
T2 sequence: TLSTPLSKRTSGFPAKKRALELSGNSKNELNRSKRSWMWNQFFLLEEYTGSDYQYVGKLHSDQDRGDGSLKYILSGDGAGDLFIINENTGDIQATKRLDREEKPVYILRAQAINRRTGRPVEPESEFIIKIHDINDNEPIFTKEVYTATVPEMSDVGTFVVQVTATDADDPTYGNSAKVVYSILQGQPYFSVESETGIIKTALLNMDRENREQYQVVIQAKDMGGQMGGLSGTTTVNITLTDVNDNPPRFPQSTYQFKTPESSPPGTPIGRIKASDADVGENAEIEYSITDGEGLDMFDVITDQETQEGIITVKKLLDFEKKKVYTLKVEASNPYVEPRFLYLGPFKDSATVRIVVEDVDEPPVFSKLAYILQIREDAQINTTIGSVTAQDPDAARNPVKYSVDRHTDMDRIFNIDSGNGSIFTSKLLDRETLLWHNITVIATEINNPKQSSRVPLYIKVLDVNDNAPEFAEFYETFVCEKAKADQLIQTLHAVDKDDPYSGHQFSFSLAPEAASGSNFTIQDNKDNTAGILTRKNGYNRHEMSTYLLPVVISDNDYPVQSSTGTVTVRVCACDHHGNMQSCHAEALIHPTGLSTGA
The assay is described as follows: ELISA, coated antigen; ELISA, hCDH6 ECD-his coated at 1 µg/mL, antibody in solution. Here is the method: Human CDH6 protein (hCDH6 ECD-his, conventionally synthesized), monkey CDH6 protein (cynoCDH6 ECD-his, conventionally synthesized; the cynoCDH6 ECD sequence was derived from Uniprot #A0A2K5TW62 (19-615)), and murine CDH6 protein (mCDH6 ECD-his, conventionally synthesized; the mCDH6 ECD sequence was derived from Uniprot #P97326 (19-615)) were diluted with PBS to a final concentration of 1 μg/mL, and added to a 96-well ELISA plate at 100 μL/well. The plate was incubated at 4° C. overnight. The next day, the plate was washed 3 times with a plate washing solution (PBS+0.01% (v/v) Tween 20), and a blocking buffer (PBS+0.01% (v/v) Tween 20+2% (w/w) BSA) was added for blocking at room temperature for 2 h. The blocking buffer was discarded, and the plate was washed 3 times. The chimeric antibodies were diluted with 1% BSA+PBS (purchased from Cytiva, Cat. No. SH30264.01) and added to the 96-well plate at 50 μL/well. After incubation at 37° C. for 2 h, the plate was washed 3 times with a plate washing solution. […] The plate was incubated at 37° C. for 1 h and then washed 5 times with a plate washing solution. A TMB substrate (purchased from Seracare, Cat. No. 5120-0077) was added at 50 μL/well and incubated at room temperature for 10 min, then a stop solution (1.0 N HCl) was added at 50 μL/well. OD450 nm values were read using a microplate reader (Biotek). Analysis was performed by the GraphPad Prism software, data were fitted, and EC50 values were calculated. The chimeric antibodies tested all had strong binding to the human CDH6 protein, the monkey CDH6 protein, and the murine CDH6 protein.
(In an ELISA, binding on a coated surface is turned into a signal by an enzyme label.)

B1: DS-H01L02 (antibody, human IgG1, kappa, V domains shown)
VH: EVQLVQSGAEVKKPGASVKVSCKASGYTFTRNFMHWVRQAPGQGLEWMGWIYPGDGETEYAQKFQGRVTITADTSTSTAYMELSSLRSEDTAVYYCARGVYGGFAGGYFDFWGQGTLVTVSS
VL: DIQMTQSPSSLSASVGDRVTITCKASQNIYKNLAWYQQKPGKAPKLLIYDANTLQTGVPSRFSGSGSGSDFTLTISSLQPEDFATYFCQQYYSGWAFGQGTKVEIKR
notes: Positive control, variable regions from WO2018212136A1; also called positive control anti-human CDH6 antibody
As for B1, the “Max MFI” value in assay [1] was 1530 MFI. In addition, the EC50 in assay [2] is 0.168 nM.

B2: CHI-CDH6-3 (antibody, human IgG1, kappa, V domains shown)
VH: QVQLQQPGAELVKPGASVKLSCKASGYTFTSYWIHWVKQRPGQGLEWIGEINPSNGVTNCNENFKSKATLTVDKSSSTAYMQLSSLTSEDSAVYYCTIPNLLWWYFDVWGAGTTVTVSS
VL: DIQMTQSPASLSVSVGETVTITCRASENIYSNLAWYQQKQGKSPQLLVYEATNLADGVPSRFSGSGSGTQYSLKINSLQSEDFGSYYCQHFWGTLWTFGGGTKLEIKR
notes: also called CH1-CDH6-3; chimeric antibody of murine CDH6-3
Regarding B2, in assay [1], the “Max MFI” value stood at 5610 MFI. This molecule displayed a concentration for a half-maximal effect (EC50) in assay [2] of 0.03 nM.

B3: CHI-CDH6-5 (antibody, human IgG1, kappa, V domains shown)
VH: QVQLQQSGAELVRPGTSVKMSCKAAEYTFTNYWIGWVKQRPGHGLEWIGDLYPGGDHANYNEKFEGKATLTADTSSSTAYMQLSSLTSEDSAIYYCARGMLTTGFDSWGQGTTLTVSS
VL: DIVMSQSPSSLAVSAGEKVTMSCKSSQSLFNSRTRKNYLAWYQQKPGQSPKLLIYWASTRESGVPDRFTGSGSGTDFTLTISSVQAEDLAVYYCKQSYYLRTFGGGTKLEIKR
notes: also called CH1-CDH6-5; chimeric antibody of murine CDH6-5
Regarding B3, the “Max MFI” value in assay [1] worked out at 4240 MFI. Moreover, in assay [2], a half-maximal effect (EC50) was put at 0.043 nM.

B4: CHI-CDH6-7 (antibody, human IgG1, kappa, V domains shown)
VH: EVKLVESGGGLVKPGGSLKVSCAASGFTFSDHGMAWVRQAPGKGPEWVAFISNLAYSIYYADTVTGRFTISRENAKNTLYLEMSSLRSEDTAMYYCARVYVKWYFDVWGAGTTVTVSS
VL: DIQMTQSPASLSASVGETVTITCRASENIDSYLAWYQQKQGKSPQLLVFAATLLADGVPSRFSGSGSGTQYSLKINSLQSEDVARYYCQHYYSTPLTFGAGTKLELKR
notes: also called CH1-CDH6-7; chimeric antibody of murine CDH6-7
On to B4, for which the “Max MFI” value in assay [1] came out at 1020 MFI. In assay [2], the midpoint of the response, the EC50, lay at 0.488 nM.

B5: CHI-CDH6-12 (antibody, human IgG1, kappa, V domains shown)
VH: EVNLVESGGGLVQPGDSLTLSCSASGFTFTDYYMSWVRQFPGKALEWLALIRNKANSYTTEYSASVKGRFTISRDNSQSILYLQMNALRAEDSATYYCARDSYYSHDGFAYWGQGTLVTVSA
VL: DIVLTQSPASLAVSLGQRATISCRASKSVSTSSYTYMHWYQQKPGQPPKLLIKFASYLESGVPARFSGSGSGTDFTLNIHPVEEEDAATYYCQHSREFPFTFGTGTKLEIKR
notes: also called CH1-CDH6-12; chimeric antibody of murine CDH6-12
On to B5, for which the “Max MFI” value in assay [1] worked out at 4490 MFI. The response in assay [2] was half-maximal at 0.105 nM (EC50).

B6: CHI-CDH6-4 (antibody, human IgG1, kappa, V domains shown)
VH: QVQLQQSGPELVKPGASVKISCKASGYAFSNFWMNWVKQRPGKGLEWIGWIYPGDGDTNYNGKFKDKATLTADKSSSTAYIQLSSLTSEDSAVYFCARLYDAWGFFDYWGQGTTLTVSS
VL: QIVLTQSPAIMSASPGQKVTITCSASSSVNYMHWYQQKLGSSPKLWIYDKSKLAPGVPARFSGSGSGTSYSLTISSMEAEDAASYFCHQWSSYPPMTFGGGTKLEIKR
notes: also called CH1-CDH6-4; chimeric antibody of murine CDH6-4
Regarding B6, in assay [1], the “Max MFI” value came to 6540 MFI. In assay [2], a half-maximal response (EC50) required 0.053 nM.

The term EC50 denotes the midpoint of the concentration-response curve. Read a high EC50 as a need for much substance.
